Experimental data as given in the supplement of paper PMC10065799, “High-throughput profiling of sequence recognition by tyrosine kinases and SH2 domains using bacterial peptide display” (eLife, 2023).

Assays:
[1] = molecular target: c-Src SH2; assay: SH2 binding enrichment of the phosphorylated peptide, bacterial display (enrichment ratio); higher = better substrate or ligand; peptides without Tyr show the background
[2] = molecular target: SHP2-C SH2; assay: as above
[3] = molecular target: Grb2 SH2 (UniProt P62993); assay: as above
[4] = molecular target: Fes (UniProt P07332); assay: phosphorylation enrichment, bacterial display (enrichment ratio); higher = better substrate or ligand; peptides without Tyr show the background
[5] = molecular target: FGFR3 (UniProt P22607); assay: as above
[6] = molecular target: MERTK (UniProt Q12866); assay: as above
[7] = molecular target: EPHB1 (UniProt P54762); assay: as above
[8] = molecular target: Hck (UniProt P08631); assay: as above
[9] = system: c-Src; assay: as above
[10] = molecular target: FGFR1 (UniProt P11362); assay: as above
[11] = system: c-Abl (mouse); assay: as above
[12] = system: AncSZ; assay: as above
[13] = system: Fer (mouse); assay: as above
[14] = molecular target: Fyn (UniProt P06241); assay: as above
[15] = molecular target: EPHB2 (UniProt P29323); assay: as above
[16] = molecular target: Jak2 (UniProt O60674); assay: as above
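Throughout, for SH2 binding enrichment of the phosphorylated peptide, bacterial display: peptide library displayed on the E. coli surface as eCPX fusions, selected cells deep-sequenced, score is each peptide's frequency after selection divided by its frequency in the input.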
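Throughout, for phosphorylation enrichment, bacterial display: 11-residue human phosphosite peptides and single-mutation variants displayed on the E. coli surface, counted by deep sequencing, each peptide's frequency after selection divided by its frequency in the unselected input library; frequency after pTyr selection over input frequency; kinase dosed for 20-30% of maximal phosphorylation in three min.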

Sequence of Fyn (P06241 whole entry, looked up): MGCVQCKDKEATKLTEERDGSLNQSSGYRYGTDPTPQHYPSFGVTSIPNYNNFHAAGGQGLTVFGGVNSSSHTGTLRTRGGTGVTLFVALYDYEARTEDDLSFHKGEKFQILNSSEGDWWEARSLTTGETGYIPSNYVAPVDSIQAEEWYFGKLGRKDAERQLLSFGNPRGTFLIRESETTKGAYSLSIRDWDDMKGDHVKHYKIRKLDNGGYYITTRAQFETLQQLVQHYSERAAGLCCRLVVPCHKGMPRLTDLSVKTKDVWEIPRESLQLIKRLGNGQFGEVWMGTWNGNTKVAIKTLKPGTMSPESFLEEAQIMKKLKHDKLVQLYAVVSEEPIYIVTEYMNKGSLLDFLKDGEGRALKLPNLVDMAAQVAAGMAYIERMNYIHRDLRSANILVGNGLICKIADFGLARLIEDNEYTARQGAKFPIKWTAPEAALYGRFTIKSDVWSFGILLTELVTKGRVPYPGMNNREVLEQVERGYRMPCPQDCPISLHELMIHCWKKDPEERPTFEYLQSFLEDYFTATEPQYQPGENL
Sequence of Jak2 (O60674 whole entry, looked up, the tested form may be a part): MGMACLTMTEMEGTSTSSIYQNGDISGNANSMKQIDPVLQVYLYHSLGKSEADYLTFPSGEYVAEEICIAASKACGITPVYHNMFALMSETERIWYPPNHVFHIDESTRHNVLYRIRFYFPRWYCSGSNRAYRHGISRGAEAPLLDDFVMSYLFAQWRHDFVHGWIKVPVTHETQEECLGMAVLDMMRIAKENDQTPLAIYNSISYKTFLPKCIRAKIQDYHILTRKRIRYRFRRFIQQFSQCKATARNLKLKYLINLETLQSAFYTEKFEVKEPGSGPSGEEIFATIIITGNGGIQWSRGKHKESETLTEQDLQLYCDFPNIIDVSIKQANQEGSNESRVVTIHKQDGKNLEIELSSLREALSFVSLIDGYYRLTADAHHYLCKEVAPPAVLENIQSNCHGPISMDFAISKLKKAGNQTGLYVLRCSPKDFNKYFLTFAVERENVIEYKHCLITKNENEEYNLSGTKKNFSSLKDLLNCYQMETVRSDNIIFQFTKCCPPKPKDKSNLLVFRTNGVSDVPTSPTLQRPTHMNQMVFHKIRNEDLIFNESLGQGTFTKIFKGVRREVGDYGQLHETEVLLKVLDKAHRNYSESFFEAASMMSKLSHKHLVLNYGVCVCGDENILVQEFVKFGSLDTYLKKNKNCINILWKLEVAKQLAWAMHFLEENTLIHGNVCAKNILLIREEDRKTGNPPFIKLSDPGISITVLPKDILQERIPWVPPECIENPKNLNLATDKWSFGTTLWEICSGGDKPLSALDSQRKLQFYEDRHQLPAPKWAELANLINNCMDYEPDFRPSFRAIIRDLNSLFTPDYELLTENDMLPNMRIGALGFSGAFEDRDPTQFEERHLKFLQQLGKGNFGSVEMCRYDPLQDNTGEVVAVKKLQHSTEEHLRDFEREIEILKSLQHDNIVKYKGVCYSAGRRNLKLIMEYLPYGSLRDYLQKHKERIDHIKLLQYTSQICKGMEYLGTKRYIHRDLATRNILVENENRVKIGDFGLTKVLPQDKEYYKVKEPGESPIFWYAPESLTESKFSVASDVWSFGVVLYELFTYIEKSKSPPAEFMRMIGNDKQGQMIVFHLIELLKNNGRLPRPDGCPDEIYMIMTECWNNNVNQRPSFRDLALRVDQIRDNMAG
Sequence of Fes (P07332 whole entry, looked up): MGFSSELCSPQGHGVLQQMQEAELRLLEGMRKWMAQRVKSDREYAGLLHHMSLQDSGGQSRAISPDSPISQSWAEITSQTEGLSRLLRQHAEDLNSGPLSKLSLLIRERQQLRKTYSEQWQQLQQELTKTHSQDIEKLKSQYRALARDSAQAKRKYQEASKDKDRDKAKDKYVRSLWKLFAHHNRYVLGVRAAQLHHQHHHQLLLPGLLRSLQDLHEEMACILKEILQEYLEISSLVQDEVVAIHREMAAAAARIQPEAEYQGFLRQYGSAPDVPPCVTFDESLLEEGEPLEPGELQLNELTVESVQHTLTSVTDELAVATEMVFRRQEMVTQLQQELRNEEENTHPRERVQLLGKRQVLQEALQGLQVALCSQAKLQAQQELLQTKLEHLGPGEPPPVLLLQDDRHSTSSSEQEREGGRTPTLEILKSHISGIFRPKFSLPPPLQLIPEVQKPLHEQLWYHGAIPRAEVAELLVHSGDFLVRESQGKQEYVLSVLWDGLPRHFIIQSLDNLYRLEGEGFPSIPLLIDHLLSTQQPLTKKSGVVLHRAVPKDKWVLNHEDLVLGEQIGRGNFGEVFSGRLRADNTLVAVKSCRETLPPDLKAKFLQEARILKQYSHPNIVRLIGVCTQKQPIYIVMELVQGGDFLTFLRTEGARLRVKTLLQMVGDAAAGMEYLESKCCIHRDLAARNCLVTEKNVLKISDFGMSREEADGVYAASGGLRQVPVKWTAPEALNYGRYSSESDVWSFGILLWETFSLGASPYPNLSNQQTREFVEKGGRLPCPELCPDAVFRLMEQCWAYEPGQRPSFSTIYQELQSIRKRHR
Sequence of EPHB2 (P29323 whole entry, looked up): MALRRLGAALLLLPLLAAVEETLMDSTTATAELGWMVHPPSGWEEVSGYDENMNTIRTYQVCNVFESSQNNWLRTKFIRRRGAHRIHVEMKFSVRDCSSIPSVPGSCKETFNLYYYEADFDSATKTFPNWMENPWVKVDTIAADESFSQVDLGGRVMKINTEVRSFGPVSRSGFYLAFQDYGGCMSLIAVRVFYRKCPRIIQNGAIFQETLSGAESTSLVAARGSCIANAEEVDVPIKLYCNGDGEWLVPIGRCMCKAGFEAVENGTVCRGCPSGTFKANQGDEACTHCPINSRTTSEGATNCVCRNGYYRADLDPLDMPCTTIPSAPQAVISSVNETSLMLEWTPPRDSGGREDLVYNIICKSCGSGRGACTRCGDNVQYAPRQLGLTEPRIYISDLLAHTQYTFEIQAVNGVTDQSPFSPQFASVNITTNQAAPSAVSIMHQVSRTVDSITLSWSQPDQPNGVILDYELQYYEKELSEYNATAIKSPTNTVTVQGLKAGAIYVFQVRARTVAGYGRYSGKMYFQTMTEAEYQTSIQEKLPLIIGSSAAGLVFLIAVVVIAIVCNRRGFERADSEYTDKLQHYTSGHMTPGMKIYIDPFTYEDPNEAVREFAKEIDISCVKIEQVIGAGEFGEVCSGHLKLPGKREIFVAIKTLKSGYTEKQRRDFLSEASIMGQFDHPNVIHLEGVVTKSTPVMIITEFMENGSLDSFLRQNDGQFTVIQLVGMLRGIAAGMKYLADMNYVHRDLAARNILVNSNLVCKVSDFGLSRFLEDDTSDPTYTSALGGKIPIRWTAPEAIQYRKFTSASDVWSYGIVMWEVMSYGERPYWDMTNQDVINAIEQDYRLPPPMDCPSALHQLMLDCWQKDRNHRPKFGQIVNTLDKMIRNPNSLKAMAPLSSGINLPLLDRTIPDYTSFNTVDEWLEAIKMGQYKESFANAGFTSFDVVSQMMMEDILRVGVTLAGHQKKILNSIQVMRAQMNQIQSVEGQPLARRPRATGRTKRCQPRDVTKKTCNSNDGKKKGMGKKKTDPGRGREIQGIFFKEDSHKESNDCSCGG
Sequence of Hck (P08631 whole entry, looked up): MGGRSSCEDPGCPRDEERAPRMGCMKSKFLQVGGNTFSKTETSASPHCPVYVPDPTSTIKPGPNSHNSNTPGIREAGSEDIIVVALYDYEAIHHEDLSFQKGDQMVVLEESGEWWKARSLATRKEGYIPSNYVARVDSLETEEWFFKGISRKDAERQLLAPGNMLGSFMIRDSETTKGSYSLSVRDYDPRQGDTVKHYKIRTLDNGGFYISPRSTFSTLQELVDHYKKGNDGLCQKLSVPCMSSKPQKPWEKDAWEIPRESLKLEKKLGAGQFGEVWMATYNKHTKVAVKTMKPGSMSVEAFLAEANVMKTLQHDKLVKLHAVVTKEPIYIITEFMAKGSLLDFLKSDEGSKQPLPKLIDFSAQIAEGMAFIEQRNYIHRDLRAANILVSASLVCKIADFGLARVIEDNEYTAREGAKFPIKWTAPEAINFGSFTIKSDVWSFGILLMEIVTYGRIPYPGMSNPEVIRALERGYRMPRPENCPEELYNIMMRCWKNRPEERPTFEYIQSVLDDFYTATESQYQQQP
Sequence of FGFR1 (P11362 whole entry, looked up): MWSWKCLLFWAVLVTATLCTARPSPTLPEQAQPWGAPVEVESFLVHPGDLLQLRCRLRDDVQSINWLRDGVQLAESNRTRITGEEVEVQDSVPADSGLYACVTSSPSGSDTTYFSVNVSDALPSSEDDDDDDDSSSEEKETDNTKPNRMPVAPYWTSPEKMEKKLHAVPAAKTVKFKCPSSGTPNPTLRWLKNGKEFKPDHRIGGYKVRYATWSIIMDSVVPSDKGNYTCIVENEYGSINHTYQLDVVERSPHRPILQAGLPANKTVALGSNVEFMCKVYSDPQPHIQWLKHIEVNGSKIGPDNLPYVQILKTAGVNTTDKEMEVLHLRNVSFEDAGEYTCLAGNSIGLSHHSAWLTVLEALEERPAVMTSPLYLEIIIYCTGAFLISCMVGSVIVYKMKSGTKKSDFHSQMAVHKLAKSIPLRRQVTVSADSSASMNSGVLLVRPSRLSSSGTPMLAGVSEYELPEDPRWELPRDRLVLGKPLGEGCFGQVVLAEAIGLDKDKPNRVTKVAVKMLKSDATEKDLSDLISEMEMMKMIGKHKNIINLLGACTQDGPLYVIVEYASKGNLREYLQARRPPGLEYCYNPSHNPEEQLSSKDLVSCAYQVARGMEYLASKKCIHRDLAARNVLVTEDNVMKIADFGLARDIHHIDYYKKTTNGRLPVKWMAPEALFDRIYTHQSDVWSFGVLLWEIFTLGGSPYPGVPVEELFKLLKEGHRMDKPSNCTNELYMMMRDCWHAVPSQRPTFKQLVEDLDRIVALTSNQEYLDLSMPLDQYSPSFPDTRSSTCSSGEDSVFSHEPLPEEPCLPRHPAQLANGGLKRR

Sequence | SH2 binding enrichment [1] | SH2 binding enrichment [2] | SH2 binding enrichment [3] | phosphorylation enrichment [4] | phosphorylation enrichment [5] | phosphorylation enrichment [6] | phosphorylation enrichment [7] | phosphorylation enrichment [8] | phosphorylation enrichment [9] | phosphorylation enrichment [10] | phosphorylation enrichment [11] | phosphorylation enrichment [12] | phosphorylation enrichment [13] | phosphorylation enrichment [14] | phosphorylation enrichment [15] | phosphorylation enrichment [16]
SHTPSYCDESL [RITA1_Y109] | 0.678 | 0.706 | 0.895 | 0.831 | 0.516 | 0.419 | 0.462 | 0.405 | 0.403 | 0.502 | 0.566 | 0.806 | 0.505 | 0.405 | 0.459 | 0.62
HEGKIYEYNQV [ZNF665_Y162] | 2.25 | 0.672 | 1.18 | 1.56 | 0.81 | 6.51 | 1.06 | 2.04 | 4.23 | 0.746 | 5.38 | 1.98 | 18.4 | 3.02 | 0.987 | 1.39
GFEVVYMTEPI [HSP90AB1_Y512] | 0.605 | 0.694 | 0.85 | 1.34 | 0.879 | 0.405 | 0.527 | 0.668 | 0.8 | 0.625 | 0.693 | 1.37 | 0.403 | 0.557 | 0.537 | 1.4
KTGNIYRTEFG [MRPL3_Y265_M261T_YF] | 0.547 | 0.871 | 1.15 | 0.542 | 0.491 | 0.413 | 0.422 | 0.435 | 0.349 | 0.517 | 0.457 | 0.585 | 0.35 | 0.437 | 0.377 | 0.468
TRDVNYGWIIR [MT-CYB_Y75] | 0.55 | 1.28 | 1.22 | 0.999 | 0.654 | 0.756 | 0.542 | 0.422 | 0.423 | 0.344 | 0.595 | 0.997 | 0.443 | 0.475 | 0.91 | 0.949
SSREEYFIGGG [GYPC_Y126_K124E] | 0.486 | 0.895 | 0.836 | 0.909 | 1.94 | 0.471 | 0.457 | 0.474 | 0.655 | 0.562 | 0.71 | 1.05 | 0.486 | 0.574 | 0.44 | 0.894
GIMEEYQLPFF [BMPR1A_Y453_V450M_YF] | 0.49 | 0.464 | 0.719 | 1.11 | 1.32 | 0.499 | 0.648 | 0.676 | 0.894 | 1.7 | 2.27 | 4.83 | 0.587 | 1.2 | 0.914 | 1.09
RNPLRYTSILT [OR51B6_Y130_S126N] | 3.12 | 3.4 | 1.86 | 0.794 | 0.738 | 0.484 | 0.478 | 0.498 | 0.65 | 0.582 | 0.697 | 0.689 | 0.474 | 0.532 | 0.482 | 0.892
AKRKGYDMQVD [NEB_Y2770_R2773Q] | 0.533 | 0.493 | 0.728 | 0.395 | 0.315 | 0.301 | 0.257 | 0.363 | 0.404 | 0.311 | 0.372 | 0.473 | 0.328 | 0.327 | 0.366 | 0.377
TGDFGYRTPGF [TNS2_Y668_A670T_YF] | 0.529 | 0.709 | 0.765 | 0.632 | 0.517 | 0.429 | 0.48 | 0.401 | 0.413 | 0.438 | 0.706 | 0.523 | 0.399 | 0.457 | 0.419 | 0.526
KSVSQYLEMDK [CAGE1_Y438] | 1.9 | 0.528 | 0.873 | 0.803 | 0.537 | 0.38 | 0.422 | 0.391 | 0.406 | 0.46 | 1.05 | 0.748 | 0.424 | 0.414 | 0.406 | 0.907
GADDSYFTVRS [ZAP70_Y492_A495V_YF] | 0.645 | 0.625 | 0.854 | 1 | 2.62 | 0.468 | 0.558 | 0.968 | 0.846 | 3.54 | 0.665 | 1.59 | 0.484 | 0.604 | 0.498 | 1.73
REVVNYVQKRN [RMI1_Y450] | 0.632 | 0.787 | 1.1 | 1.08 | 0.521 | 0.869 | 0.622 | 0.696 | 0.582 | 0.36 | 0.975 | 0.931 | 0.554 | 0.541 | 0.595 | 0.598
VDYQPYRKHKY [TEX37_Y28] | 0.918 | 1.11 | 0.917 | 0.518 | 0.416 | 0.302 | 0.314 | 0.484 | 0.35 | 0.423 | 0.53 | 0.627 | 0.425 | 0.436 | 0.356 | 0.483
GEFHVYRHLRW [PRKRIP1_Y82_R87W] | 0.887 | 0.838 | 0.972 | 1.08 | 0.682 | 0.345 | 0.499 | 0.429 | 0.329 | 0.442 | 0.723 | 1 | 0.413 | 0.428 | 0.458 | 0.995
RPSRQYATRDV [SCAMP3_Y35_L38R] | 0.417 | 0.801 | 0.765 | 0.498 | 0.352 | 0.274 | 0.366 | 0.412 | 0.407 | 0.473 | 0.615 | 0.598 | 0.381 | 0.396 | 0.356 | 0.352
LNTFHYAGVSA [POLR2A_Y1109] | 1.32 | 1.64 | 0.9 | 0.722 | 0.56 | 0.449 | 0.434 | 0.45 | 0.464 | 0.407 | 0.552 | 0.656 | 0.469 | 0.419 | 0.415 | 0.584

Sequence | SH2 binding enrichment [1] | SH2 binding enrichment [2] | SH2 binding enrichment [3] | phosphorylation enrichment [4] | phosphorylation enrichment [5] | phosphorylation enrichment [6] | phosphorylation enrichment [7] | phosphorylation enrichment [8] | phosphorylation enrichment [9] | phosphorylation enrichment [10] | phosphorylation enrichment [11] | phosphorylation enrichment [12] | phosphorylation enrichment [13] | phosphorylation enrichment [14] | phosphorylation enrichment [15] | phosphorylation enrichment [16]
PTQLPYDHKWK [KIT_Y578_E583K] | 0.437 | 0.512 | 0.756 | 0.677 | 0.439 | 0.28 | 0.484 | 0.397 | 0.425 | 0.58 | 0.634 | 0.725 | 0.478 | 0.433 | 0.299 | 0.626
QWRTKYEMDAI [MYH7_Y1375_T1377M] | 0.549 | 0.522 | 0.891 | 0.964 | 0.843 | 0.384 | 0.479 | 0.561 | 0.344 | 0.58 | 0.5 | 1.12 | 0.365 | 0.773 | 0.4 | 0.519
TLNVRHESVQA [CEACAM7_Y236_Y236H] | 0.579 | 0.714 | 0.978 | 0.59 | 0.39 | 0.348 | 0.38 | 0.366 | 0.466 | 0.451 | 0.415 | 0.564 | 0.374 | 0.378 | 0.44 | 0.831
ISKKHYAGLLF [POLD1_Y809_R808H] | 2.04 | 12.4 | 1.22 | 0.671 | 0.643 | 0.456 | 0.317 | 0.46 | 0.436 | 0.468 | 0.521 | 0.545 | 0.469 | 0.42 | 0.381 | 0.636
RMDGKYACSYT [FLNB_Y704_T703K] | 0.878 | 0.863 | 0.997 | 1.02 | 0.518 | 0.484 | 0.437 | 0.541 | 0.664 | 0.528 | 0.79 | 0.899 | 0.635 | 0.418 | 0.471 | 0.722
SSFDIYHLSRE [KIR3DL2_Y253_YF] | 0.608 | 0.694 | 0.776 | 1.02 | 1.29 | 2.6 | 0.975 | 9.84 | 7.22 | 1.44 | 0.807 | 1.12 | 0.788 | 12.1 | 0.762 | 0.817
IAKNPYDPPGR | 0.543 | 0.482 | 0.765 | 0.689 | 0.48 | 0.426 | 0.363 | 0.316 | 0.38 | 0.405 | 0.455 | 0.56 | 0.37 | 0.344 | 0.333 | 0.635
GGPAGYLRRAS [PKLR_Y38] | 0.514 | 0.42 | 0.666 | 0.678 | 0.442 | 0.528 | 0.406 | 0.458 | 0.429 | 0.405 | 0.671 | 0.717 | 0.377 | 0.636 | 0.398 | 0.529
NGEDLYAGSTD [XRCC1_Y515_P514L] | 0.469 | 0.555 | 0.834 | 1.05 | 0.613 | 0.446 | 0.517 | 0.886 | 0.807 | 0.489 | 0.743 | 1.17 | 0.52 | 0.66 | 0.541 | 1.02
SVTCTYSSALN [TP53_Y126_P128S] | 0.537 | 0.732 | 0.78 | 1 | 0.726 | 0.458 | 0.601 | 0.689 | 0.64 | 0.483 | 0.728 | 1 | 0.534 | 0.6 | 0.576 | 0.909
VHNLDYYKMTT [FGFR3_Y647_K650M] | 1.07 | 0.643 | 0.731 | 0.608 | 8.96 | 0.492 | 1.17 | 0.547 | 0.496 | 12.1 | 0.433 | 1.33 | 0.522 | 0.439 | 0.895 | 5.87
TTGLIYIGSHD [AASDH_Y870] | 0.624 | 0.69 | 1.04 | 0.759 | 0.79 | 0.323 | 0.686 | 0.46 | 0.408 | 0.445 | 0.488 | 0.726 | 0.424 | 0.375 | 0.565 | 0.715
CNPLRYPTIMI [OR6K6_Y160] | 0.458 | 0.829 | 0.822 | 0.962 | 0.84 | 0.482 | 0.49 | 0.5 | 0.464 | 0.584 | 0.737 | 0.946 | 0.419 | 0.524 | 0.758 | 0.871
ETKTPYTVILI [SBDS_Y128_R126T] | 0.54 | 2.27 | 0.671 | 1.22 | 0.794 | 0.534 | 0.543 | 0.569 | 0.485 | 0.592 | 0.651 | 0.999 | 1.06 | 0.483 | 0.637 | 0.961
VDEERYDIEAK [TNNI3_Y112] | 0.62 | 0.647 | 0.852 | 1.24 | 0.697 | 0.439 | 0.516 | 0.724 | 0.483 | 0.555 | 0.752 | 1.13 | 0.519 | 0.513 | 0.708 | 1.12
FRDMDYRSFPR [RBM10_Y41_YF] | 0.543 | 0.726 | 1.01 | 0.864 | 0.482 | 0.446 | 0.435 | 0.477 | 0.4 | 0.473 | 0.485 | 0.694 | 0.346 | 0.424 | 0.492 | 0.58
